System: Histone III (type ss from calf thymus)

His-tagged Pim-2 (purified recombinant human Pim-2, expressed in E. coli)
Incorporation of 33P into Histone (in vitro kinase assay, 15, 30 and 60 min): purified recombinant Pim-2 is active in phosphorylating Histone

Source: patent US20030125231
